Patent US20050025768A1 (Biogen, published 2005)

T1: human MCP-2 (human, UniProt P80075 24-99)
T1 construct: also called hMCP-2; huMCP-2
T1 sequence (looked up): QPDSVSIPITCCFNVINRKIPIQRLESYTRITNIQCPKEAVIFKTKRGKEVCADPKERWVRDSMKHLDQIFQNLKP

T2: human fractalkine (human, UniProt P78423 25-100, limits assumed)
T2 sequence (looked up): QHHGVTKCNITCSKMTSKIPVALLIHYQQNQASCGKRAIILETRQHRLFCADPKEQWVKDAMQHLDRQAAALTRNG

T3: human DC-CK (human, UniProt P55774 21-89, limits assumed)
T3 construct: reading it as DC-CK1/CCL18 is mine
T3 sequence (looked up): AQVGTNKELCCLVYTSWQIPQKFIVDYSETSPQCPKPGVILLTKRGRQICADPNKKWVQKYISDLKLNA


Assays:
rhesus MCP-1 = target: T4, rhesus MCP-1 (rhesus, UniProt P61275 24-99); test: ELISA, 1 ug/ml synthetic chemokine coated, mAb 10 ug/ml
T4 construct: also called primate MCP-1
Procedure: (§1) MaxiSorp 384 well plates were coated with 15-20 μl antigen in PBS. Recombinant purified human antigens included: MCP-1, MCP-2, MCP-3, MCP-4, IL-8, eotaxin, fractalkine, Gcp-2, DC-CK (Gcp-2 and DC-CK are also chemokines). Plates were incubated with antigen for 2 hours at 37° C. or overnight at 4° C. Non-specific sites were blocked with 80 μl/well of 1% BSA/PBS for 1 hour at room temperature. Plates were washed and 15 μl of hybridoma supernatant was added to each well and incubated for 1 hour at room temperature. Plates were washed and wells were incubated with 20 μl/well of a 1:25 000 dilution of goat anti-mouse IgG peroxidase conjugate (Jackson Catalog Number 515-036-003). Plates were incubated for 1 hour at room temperature, washed, and 20 μl/well of substrate (TMB, tetramethylbenzidine, Jackson, Catalog Number 515-036-062) was added. Reaction was allowed to proceed and stopped by addition of 20 μl/well of 2M H₂SO₄. Reactive clones were picked for further analysis. Isotyping of hybridoma supernatants was performed by antigen-dependent ELISA. Briefly, wells were coated with 50 μl of human MCP-1 (5 μg/ml) for 1 hour at 37° C. Wells were washed 4 times and blocked with PBS/1% BSA. Isotyping of hybridoma supernatants was then performed using a mouse immunoglobulin screening/isotyping kit (Zymed Laboratories, San Francisco, Calif.) as recommended by the manufacturer.
(§2) In addition, both 1A1 and 11K2 mAbs recognize primate MCP-1. Plates were coated with 1 μg/ml of chemically synthesized chemokines (corresponding to the cynomolgus and rhesus MCP-1 sequences) and probed with 10 μg/ml of monoclonal antibodies, including MOPC21, 1l K2, 3N10, 1A1, D9, and 1M11, as described above.

cynomolgus MCP-1 = target: T5, cynomolgus MCP-1 (cynomolgus, UniProt P61274 24-99); test: as above
T5 construct: also called primate MCP-1
Procedure: as §1, §2

human MCP-4 = target: T6, human MCP-4 (human, UniProt Q99616 24-98, limits assumed); test: ELISA, purified mAb
T6 construct: also called hMCP-4
Procedure: (§3) ELISA specificity assays were performed using purified monoclonal antibodies to confirm the binding specificities of the supernatant MCP-specific monoclonal antibodies described above. Antibodies were purified by Protein A affinity column chromatography, according to standard methods known in the art.
(§4) ELISA was performed as previously described in Example 1. Briefly, MaxiSorp 384 well plates were coated with 15-20 μl antigen in PBS. Recombinant purified human antigens included: MCP-1, MCP-2, MCP-3, MCP-4, IL-8, eotaxin, murine MCP-1 (JE), murine MCP-3, murine MCP-5, and rat MCP-1. All antigens, including MCP-3, were immobilized. Plates were washed and purified monoclonal antibody (10 μg/ml) was added to each well and incubated for 1 hour at room temperature. Plates were washed and wells were incubated with 20 μl/well of a 1:25,000 dilution of goat anti-mouse IgG peroxidase conjugate (Jackson Catalog Number 515-036-003). Plates were incubated for 1 hour at room temperature, washed, and 20 μl/well of substrate (TMB, tetramethylbenzidine, Jackson, Catalog Number 515-036-062) was added. Reaction was allowed to proceed and stopped by addition of 20 μl/well of 2M H₂SO₄. Antibodies 1A1 bound specifically to hMCP-1, hMCP-2, hMCP-3, and mMCP-1. Antibodies 11K2, 4N4, 5A 13, 6D21, 6I5, and 7H1 bound specifically to hMCP-1, hMCP-2, hMCP-3, mMCP-1, mMCP-3, and mMCP-5.

human eotaxin = target: T7, human eotaxin (human, UniProt P51671 24-97); test: ELISA, purified mAb
T7 construct: also called hEotaxin
Procedure: as §3, §4

human IL-8 = target: T8, human IL-8 (human, UniProt P10145 28-99, limits assumed); test: ELISA, purified mAb
T8 construct: also called hIL8
Procedure: as §3, §4

human MCP-1 = target: T9, human MCP-1 (human, UniProt P13500 24-99); test: KinExA kinetic exclusion assay, in solution
T9 construct: also called hMCP-1; huMCP-1
Procedure: (§5) Polymethylmethacrylate beads activated with NHS were coated with 10 μg recombinant human MCP-1 in 1 ml buffer. The beads were packed into a column in the KinExA instrument for each sample. This packed bead column is able to capture free MCP mAb or Fab flowed through the column. The amount of free mAb or Fab in solution was determined using a secondary goat anti-mouse heavy and light chain IgG-Cy5 conjugate.
(§6) A fixed amount of 11K2 mAb, 1A1 mAb, 11K2 Fab, or 1A1 Fab was incubated with various amounts of human MCP-1, MCP-2 or MCP-3 for three hours. The amount of uncomplexed free antibody remaining in solution was determined by flowing these mixtures over the MCP-1-loaded bead column and labeling with the Cy5 secondary antibody. The fluorescent signal was plotted against the MCP concentration and the affinity was determined using a quadratic curve fit

human MCP-2 [1] = target: T1, human MCP-2; test: KinExA kinetic exclusion assay, in solution
Procedure: as §5, §6

human Gcp-2 = human Gcp-2 (human, UniProt P80162 38-114, limits assumed); test: ELISA, hybridoma supernatant
Procedure: as §1

human fractalkine = target: T2, human fractalkine; test: ELISA, hybridoma supernatant
Procedure: as §1

human DC-CK = target: T3, human DC-CK; test: ELISA, hybridoma supernatant
Procedure: as §1

human MCP-2 [2] = target: T1, human MCP-2; test: KinExA kinetic exclusion assay, in solution; whole mAb (bivalent IgG1), not Fab
Procedure: as §5, §6

human MCP-2 [3] = target: T1, human MCP-2; test: KinExA kinetic exclusion assay, in solution; Fab (monovalent), not whole mAb
Procedure: as §5, §6

binding result (rhesus MCP-1)	binding result (cynomolgus MCP-1)	binding result (human MCP-4)	binding result (human eotaxin)	binding result (human IL-8)	Kd (human MCP-1) [pM]	Kd (human MCP-2 [1]) [pM]	binding result (human Gcp-2)	binding result (human fractalkine)	binding result (human DC-CK)	Kd (human MCP-2 [2]) [pM]	Kd (human MCP-2 [3]) [pM]	Binder
–	–	no binding (tested: 10 ug/ml)	no binding (tested: 10 ug/ml)	no binding (tested: 10 ug/ml)	–	–	no binding	no binding	no binding	–	–	7H1 (antibody, IgG1, V domains shown, IgG1; ATCC PTA-3985; also called 7H1.1) VH: EVQLQQSGAELVKAGASVKLSCPASGLNIKDTYMHWVKQRPEQGLEWIGRIDPANGNTKFDPKFQGKATITADTSSNTAYLQLSSLTSEDTAVYYCARGVFGFFDYWGQGTTLTVSS VL: DIQMTQSSSSFSVSLGDRVTITCKATEDIYNRLAWYQQKPGSAPRLLISGATSLETGVPSRFSGSGSGKDYTLSITSLQTEDVATYYCQQFWSAPYTFGGGTKLEIK
–	–	no binding (tested: 10 ug/ml)	no binding (tested: 10 ug/ml)	no binding (tested: 10 ug/ml)	–	–	no binding	no binding	no binding	–	–	4N4 (antibody, IgG1, V domains shown, IgG1; ATCC PTA-3994; also called 4N4.1) VH: EVQLQQSGAELVKAGASVKLSCPASGLNIKDTYMHWVKQRPEQGLEWIGRIDPANGNTKFDPKFQGKATITADTSSNTAYLQLSSLTSEDTAVYYCARGVFGFFDYWGQGTTLTVSS VL: DIQMTQSSSSFSVSLGDRVTITCKATEDIYNRLAWYQQKPGSAPRLLISGATSLETGVPSRFSGSGSGKDYTLSITSLQTEDVATYYCQQFWSAPYTFGGGTKLEIK
binds	binds	no binding (tested: 10 ug/ml)	no binding (tested: 10 ug/ml)	no binding (tested: 10 ug/ml)	< 0.7	–	no binding	no binding	no binding	1.2	–	1A1 (antibody, IgG1, V domains shown, ATCC PTA-3990; also called 1A1.1; 1A1 mAb) VH: EVQLQQSGAELVRSGASVKLSCTASGFNIKDNYMHWVKQRPEQGLEWIGWIDPENGDTEYAPKFQGKATMTADTSSNTAYLQLSSLTSEDTAVYYCNTWAYYGTSYGGFAYWGQGTTVTVSS VL: not shown
–	–	–	–	–	13	–	–	–	–	–	320	1A1 Fab (Fab, V domains shown, Fab of the murine IgG1 mAb; also called Fab fragment of 1A1) VH: EVQLQQSGAELVRSGASVKLSCTASGFNIKDNYMHWVKQRPEQGLEWIGWIDPENGDTEYAPKFQGKATMTADTSSNTAYLQLSSLTSEDTAVYYCNTWAYYGTSYGGFAYWGQGTTVTVSS VL: not shown

Second part, the binder before the results:

Binder	binding result (rhesus MCP-1)	binding result (cynomolgus MCP-1)	binding result (human MCP-4)	binding result (human eotaxin)	binding result (human IL-8)	Kd (human MCP-1) [pM]	Kd (human MCP-2 [1]) [pM]	binding result (human Gcp-2)	binding result (human fractalkine)	binding result (human DC-CK)	Kd (human MCP-2 [2]) [pM]	Kd (human MCP-2 [3]) [pM]
11K2 (antibody, IgG1, V domains shown, ATCC PTA-3987; also called 11K2.1; 11K2 mAb) VH: EVQLQQSGAELVKAGASVKLSCPASGLNIKDTYMHWVKQRPEQGLEWIGRIDPANGNTKFDPKFQGKATITADTSSNTAYLQLSSLTSEDTAVYYCARGVFGFFDYWGQGTTLTVSS VL: DIQMTQSSSSFSVSLGDRVTITCKATEDIYNRLAWYQQKPGSAPRLLISGATSLETGVPSRFSGSGSGKDYTLSITSLQTEDVATYYCQQFWSAPYTFGGGTKLEIK	binds	binds	no binding (tested: 10 ug/ml)	no binding (tested: 10 ug/ml)	no binding (tested: 10 ug/ml)	< 0.4	18	no binding	no binding	no binding	–	–
11K2 Fab (Fab, V domains shown, Fab of the murine IgG1 mAb; also called Fab fragment of 11K2) VH: EVQLQQSGAELVKAGASVKLSCPASGLNIKDTYMHWVKQRPEQGLEWIGRIDPANGNTKFDPKFQGKATITADTSSNTAYLQLSSLTSEDTAVYYCARGVFGFFDYWGQGTTLTVSS VL: DIQMTQSSSSFSVSLGDRVTITCKATEDIYNRLAWYQQKPGSAPRLLISGATSLETGVPSRFSGSGSGKDYTLSITSLQTEDVATYYCQQFWSAPYTFGGGTKLEIK	–	–	–	–	–	11	430	–	–	–	–	–
5A13 (antibody, IgG1, V domains shown, IgG1; ATCC PTA-3995; also called 5A13.1) VH: EVQLQQSGAELVKAGASVKLSCPASGLNIKDTYMHWVKQRPEQGLEWIGRIDPANGNTKFDPKFQGKATITADTSSNTAYLQLSSLTSEDTAVYYCARGVFGFFDYWGQGTTLTVSS VL: DIQMTQSSSSFSVSLGDRVTITCKATEDIYNRLAWYQQKPGSAPRLLISGATSLETGVPSRFSGSGSGKDYTLSITSLQTEDVATYYCQQFWSAPYTFGGGTKLEIK	–	–	no binding (tested: 10 ug/ml)	no binding (tested: 10 ug/ml)	no binding (tested: 10 ug/ml)	–	–	no binding	no binding	no binding	–	–
6D21 (antibody, IgG1, V domains shown, IgG1; ATCC PTA-3989; also called 6D21.1) VH: EVQLQQSGAELVKAGASVKLSCPASGLNIKDTYMHWVKQRPEQGLEWIGRIDPANGNTKFDPKFQGKATITADTSSNTAYLQLSSLTSEDTAVYYCARGVFGFFDYWGQGTTLTVSS VL: DIQMTQSSSSFSVSLGDRVTITCKATEDIYNRLAWYQQKPGSAPRLLISGATSLETGVPSRFSGSGSGKDYTLSITSLQTEDVATYYCQQFWSAPYTFGGGTKLEIK	–	–	no binding (tested: 10 ug/ml)	no binding (tested: 10 ug/ml)	no binding (tested: 10 ug/ml)	–	–	no binding	no binding	no binding	–	–
6I5 (antibody, IgG1, V domains shown, IgG1; ATCC PTA-3986; also called 615; 6I5.1) VH: EVQLQQSGAELVKAGASVKLSCPASGLNIKDTYMHWVKQRPEQGLEWIGRIDPANGNTKFDPKFQGKATITADTSSNTAYLQLSSLTSEDTAVYYCARGVFGFFDYWGQGTTLTVSS VL: DIQMTQSSSSFSVSLGDRVTITCKATEDIYNRLAWYQQKPGSAPRLLISGATSLETGVPSRFSGSGSGKDYTLSITSLQTEDVATYYCQQFWSAPYTFGGGTKLEIK	–	–	no binding (tested: 10 ug/ml)	no binding (tested: 10 ug/ml)	no binding (tested: 10 ug/ml)	–	–	no binding	no binding	no binding	–	–
